The labels stand for the following.
B1: Her2_Cage_L209A (Tuned Cage targeted to Her2 by DARPin (L209A)) (designed binder)
chain: MGSHHHHHHGSGSENLYFQGSGGSDLGKKLLEAARAGQDDEVRILMANGADVNAKDEYGLTPLYLATAHGHLEIVEVLLKNGADVNAVDAIGFTPLHLAAFIGHLEIAEVLLKHGADVNAQDKFGKTAFDISIGNGNEDLAEILQKLNSGSGSGKPGQASGSELARKLLEASTKLQRLNIRLAEALLEAIARLQELNLELVYLAVELTDPKRIRDEIKEVKDKSKEIIRRAEKEIDDAAKESEKILEEAREAISGSGSELAKLLLKAIAETQDLNLRAAKAFLEAAAKLQELNIRAVELLVKLTDPATIREALEHAKRRSKEIIDEAERAIRAAKRESERIIEEARRLIEKGSGSGSELARELLRAHAQAQRLNLELLRELLRALAQLQELNLDLLRLASELTDEIWIAQELRRIGDEFNAYYADAERLIREAAAASEKISREAERLIR
B2: Her2_Cage_I287A (Tuned Cage targeted to Her2 by DARPin (I287A)) (designed binder)
chain: B1 chain with A370L, I448A
B3: Her2_Cage_I287S (Tuned Cage targeted to Her2 by DARPin (I287S)) (designed binder)
chain: B1 chain with A370L, I448S
B4: Her2_Cage (Original Cage targeted to Her2 by DARPin) (designed binder)
chain: B1 chain with A370L
B5: Her2_Cage_I269S (Tuned Cage targeted to Her2 by DARPin (I269S)) (designed binder)
chain: B1 chain with A370L, I430S

Numbering of substitutions follows the chain as printed. In names and notes the source's numbering stands.

In this assay the target is biotinylated Bcl2 (wild-type non-optimized Bcl2 with C-terminal Avi and 6xHis-tags) (UniProt P10415 1-207, enzymatically biotinylated using BirA (Avi tag)). In words: BLI; midpoint; Cage plus Key_EGFR, co-localization-independent.
biotinylated Bcl2 (wild-type non-optimized Bcl2 with C-terminal Avi and 6xHis-tags), sequence (P10415 1-207): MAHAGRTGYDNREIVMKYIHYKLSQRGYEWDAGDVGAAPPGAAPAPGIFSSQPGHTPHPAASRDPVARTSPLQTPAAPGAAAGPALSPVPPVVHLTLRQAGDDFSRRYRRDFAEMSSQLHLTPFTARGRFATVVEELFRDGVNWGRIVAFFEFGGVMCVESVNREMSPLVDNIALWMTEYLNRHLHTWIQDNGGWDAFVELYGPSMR
As to B1, the half-maximal effective concentration (EC50) stood at 0.023 µM. The result for B2 reads 0.012 µM; that for B3, 0.0087 µM.

For the molecule B4, the EC50 came out at 0.063 µM.

For B5, the EC50 turned out to be 0.0084 µM.

These data come from patent US20220273711A1 (published 2022).
